Among the data in publication PMC5762688 (2018) are Kd values, retold here.

Test [1] has as its target GST-exportin-1-His6/Ran-GTPγS complex, preformed (UniProt O14980 1-1071; P62826 1-216).
In test [2] the target is His6-importin α2/GST-importin β1 heterodimer (mouse), pre-dimerized (mouse, UniProt P52293 1-529; P70168 1-876).

Sequence of GST-exportin-1-His6/Ran-GTPγS complex, preformed (O14980 whole entry, one chain of several): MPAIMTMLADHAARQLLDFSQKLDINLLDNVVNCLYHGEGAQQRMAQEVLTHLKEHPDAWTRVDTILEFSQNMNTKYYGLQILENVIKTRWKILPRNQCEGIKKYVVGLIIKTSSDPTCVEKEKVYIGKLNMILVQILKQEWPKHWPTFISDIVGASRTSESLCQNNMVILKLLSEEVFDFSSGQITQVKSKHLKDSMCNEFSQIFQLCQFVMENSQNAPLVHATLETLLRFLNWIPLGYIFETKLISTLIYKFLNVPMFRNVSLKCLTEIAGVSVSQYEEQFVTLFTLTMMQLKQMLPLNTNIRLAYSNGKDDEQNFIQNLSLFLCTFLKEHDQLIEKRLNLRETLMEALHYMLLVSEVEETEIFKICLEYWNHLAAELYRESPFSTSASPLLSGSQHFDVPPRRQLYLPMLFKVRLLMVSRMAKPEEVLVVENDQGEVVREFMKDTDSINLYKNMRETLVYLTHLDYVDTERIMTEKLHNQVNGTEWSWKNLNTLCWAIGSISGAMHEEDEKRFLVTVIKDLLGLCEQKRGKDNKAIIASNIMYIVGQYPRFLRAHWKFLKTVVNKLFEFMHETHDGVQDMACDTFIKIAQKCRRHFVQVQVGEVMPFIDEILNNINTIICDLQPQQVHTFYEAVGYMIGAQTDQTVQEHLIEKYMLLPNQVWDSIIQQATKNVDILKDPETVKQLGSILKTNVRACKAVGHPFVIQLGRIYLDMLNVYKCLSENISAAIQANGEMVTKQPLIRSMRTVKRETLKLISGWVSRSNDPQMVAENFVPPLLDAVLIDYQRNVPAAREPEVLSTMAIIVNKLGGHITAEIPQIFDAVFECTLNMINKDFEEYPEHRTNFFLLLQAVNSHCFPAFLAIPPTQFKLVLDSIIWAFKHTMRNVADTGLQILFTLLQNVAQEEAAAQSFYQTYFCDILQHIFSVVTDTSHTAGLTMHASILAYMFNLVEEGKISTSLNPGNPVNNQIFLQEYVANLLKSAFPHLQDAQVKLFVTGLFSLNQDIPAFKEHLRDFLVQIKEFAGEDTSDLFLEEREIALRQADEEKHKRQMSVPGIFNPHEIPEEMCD

B1: Biotinylated Hendra virus V protein (natural protein)
chain: MDKLDLVNDGLDIIDFIQKNQKEIQKTYGRSSIQQPSTKDRTRAWEDFLQSTSGEHEQAEGGMPKNDGGTEGRNVEDLSSVTSSDGTIGQRVSNTRAWAEDPDDIQLDPMVTDVVYHDHGGECTGHGPSSSPERGWSYHMSGTHDGNVRAVPDTKVLPNAPKTTVPEEVREIDLIGLEDKFASAGLNPAAVPFVPKNQSTPTEEPPVIPEYYYGSGRRGDLSKSPPRGNVNLDSIKIYTSDDEDENQLEYEDEFAKSSSEVVIDTTPEDNDSINQEEVVGDPSDQGLEHPFPLGKFPEKEETPDVRRKDSLMQDSCKRGGVPKRLPMLSEEFECSGSDDPIIQELEREGSHPGGSLRLREPPQSSGNSRNQPDRQLKTGDAASPGGVQRPGTPMPKSRIMPIKKGHRREVSICWDGRRAWVEEWCNPVCSRITPQPRKQECYCGECPTECSQCCHEE
As usually defined, the Kd is the constant that tells how readily two partners part at equilibrium. Read a high Kd as a looser complex. Turning to B1, the Kd in test [1] came to 0.0092 µM; in test [2], 0.0149 µM.
